Reference: article PMC4877600

Test system: human immunoglobulin E (IgE) (Homo sapiens)
Assay: fluorescence bead-binding assay (thermal elution)
Conditions: IgE on beads; selection buffer as printed: 44.5 mM Tris base, 44.5 mM bisboronic acid (sic), 50 mM NaCl, pH 8.5; 0-100 nM DNA, room temperature, 2 h; IgE beads 3x10^4 per …

Sequence	Kd
GCCTGTTGTGAGCCTCCTGTCGAAGATGTAGGCCATCCTGTGGGGGTACGGGGCGGGCTGTGGTTTGAGCGTTTATTCTTGTCTCCC [SIGE5]	10 nM
GCCTGTTGTGAGCCTCCTGTCGAAACTAGACCGGGAGCAAAACGGCAGATTGGGGCAAGGCCGGTTGAGCGTTTATTCTTGTCTCCC [SIGE7]	18 nM
